Biological target: the molecule itself
Experiment: cryo-EM structure; native full-length gB with 93k Fab fragments added in molar excess, overnight at +4 °C; Amphipol 8-35, TBS pH7.4, Superose-6; single particle, C3 symmetry imposed

B1: native, full-length VZV glycoprotein B (gB) purified from VZV-infected MeWo cells (natural protein, UniProt Q4JR05 72-931, looked up)
chain: VSPSSFYESLQVEPTQSEDITRSAHLGDGDEIREAIHKSQDAETKPTFYVCPPPTGSTIVRLEPPRTCPDYHLGKNFTEGIAVVYKENIAAYKFKATVYYKDVIVSTAWAGSSYTQITNRYADRVPIPVSEITDTIDKFGKCSSKATYVRNNHKVEAFNEDKNPQDMPLIASKYNSVGSKAWHTTNDTYMVAGTPGTYRTGTSVNCIIEEVEARSIFPYDSFGLSTGDIIYMSPFFGLRDGAYREHSNYAMDRFHQFEGYRQRDLDTRALLEPAARNFLVTPHLTVGWNWKPKRTEVCSLVKWREVEDVVRDEYAHNFRFTMKTLSTTFISETNEFNLNQIHLSQCVKEEARAIINRIYTTRYNSSHVRTGDIQTYLARGGFVVVFQPLLSNSLARLYLQELVRENTNHSPQKHPTRNTRSRRSVPVELRANRTITTTSSVEFAMLQFTYDHIQEHVNEMLARISSSWCQLQNRERALWSGLFPINPSALASTILDQRVKARILGDVISVSNCPELGSDTRIILQNSMRVSGSTTRCYSRPLISIVSLNGSGTVEGQLGTDNELIMSRDLLEPCVANHKRYFLFGHHYVYYEDYRYVREIAVHDVGMISTYVDLNLTLLKDREFMPLQVYTRDELRDTGLLDYSEIQRRNQMHSLRFYDIDKVVQYDSGTAIMQGMAQFFQGLGTAGQAVGHVVLGATGALLSTVHGFTTFLSNPFGALAVGLLVLAGLVAAFFAYRYVLKLKTSPMKALYPLTTKGLKQLPEGMDPFAEKPNATDTPIEEIGDSQNTEPSVNSGFDPDKFREAQEMIKYMTLVSAAERQESKARKKNKTSALLTSRLTGLALRNRRGYSRVRTENVTGV
notes: Varicella-zoster virus glycoprotein B, 931 amino acids, ORF31, strain pOka; cleaved by furin: both uncleaved (130 kDa) and cleaved (65 kDa) gB are present; also called native gB; full-length gB
stoichiometry N: 3

— paper PMC7435202 (Nature Communications, 2020)
